T1: 6xHis-14-3-3ω (Arabidopsis, UniProt Q01525 1-259)
T1 construct: End of the His tag read from the printed name 6xHis-14-3-3ω; Vector map in Appendix 1B; construct as in Chen et al. (2018); also called recombinant 6xHis-14-3-3ω; source: E. coli BL21, purified (Ni-NTA agarose); not shown: 6xHis, N-terminal, kept
T1 sequence (looked up): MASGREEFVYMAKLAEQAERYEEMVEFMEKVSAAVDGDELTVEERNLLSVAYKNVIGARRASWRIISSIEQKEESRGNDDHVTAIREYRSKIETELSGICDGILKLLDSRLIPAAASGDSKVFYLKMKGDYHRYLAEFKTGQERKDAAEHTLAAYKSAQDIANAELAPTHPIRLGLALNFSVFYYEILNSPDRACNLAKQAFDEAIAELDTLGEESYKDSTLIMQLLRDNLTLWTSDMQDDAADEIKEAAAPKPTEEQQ


Target: T1, 6xHis-14-3-3ω
Assay: pull-down; 6xHis-14-3-3ω and GST-fused GLR3.6 peptides (50 μg each) mixed with Ni-NTA agarose, 4°C, 2 h; western blot with α-His and α-GST
Conditions: both partners purified

| binding result | Binder |
| --- | --- |
| binds | EGSIRRRSSPSA (cloned by AscI and NotI into the GST-NRV vector; End of GST read from the printed name GST-GLR3.6; The vector-only control gives GST-RFP-Strep tag II, so the peptide fusion probably carries RFP and Strep tag II too; vector map in Appendix 1A; design as in Curran et al. (2011); also called GLR3.6 peptide fragment; source: E. coli BL21, purified (glutathione resin); not shown: GST, N-terminal, kept) [GST-GLR3.6 (GST-fused peptide fragment of GLR3.6, amino acids 854-865)] |
| binds | EGAIRRRSSPSA (peptide, UniProt Q84W41 854-865, looked up, End of GST read from the printed name; also called GLR3.6-S856A single mutant; source: E. coli BL21, purified (glutathione resin); not shown: GST, N-terminal, kept) [GST-GLR3.6-S856A (GST-fused peptide fragment)] |

Source: article PMC9935832, “Calcium-dependent protein kinase CDPK16 phosphorylates serine-856 of glutamate receptor-like GLR3.6 protein leading to salt-responsive root growth in Arabidopsis^#” (Frontiers in Plant Science, 2023)
